The text below walks through data of patent US20210214440A1 (Janssen / Centocor, published 2021).

Numbering of substitutions follows the chain as printed.

The chains are these.
B1: CD8B356 (antibody, human IgG1, kappa, V domains shown)
VH: DVQLQESGPGLVKPSQSLSLTCSVTGYSITSGYYWNWIRQFPGNKLEWMGYISYDGSNNYNPSLKNRISITRDTSKNQFFLKLNSVTTEDTATYYCVRNHGDAMDYWGQGTSVTVSS
VL: DIVLTQSQKFMSTTVGDRVSITCKASQNVGTAVAWYQQKPGQSPKLLIYSASYRYTGVPDRFTGSGSGTHFTLTISNMQSEDLADYFCQQYSSYLTFGSGTKLEIKR
notes: full-length human IgG1, kappa
B2: CD8B319 (antibody, human IgG1, kappa, V domains shown)
VH: QVQLKESGPELKKPGETVKISCKASGYSFTAYYMHWVKQSPEKSLEWIGEINPSAGGTTYNQKFKAKATLTVDKSSSTAFIQLKSLTSEDSAVYYCARWTNPFDYWGQGTTLTVSS
VL: B1 VL with L4M, M78I, S92N, S93N
notes: full-length human IgG1, kappa
B3: CD8B269 (antibody, human IgG1, kappa, V domains shown)
VH: B1 VH with Y106H, S112T, V113L
VL: DIVMTQSQKFMSTSVGDRVRVTCKASQNVGTDVAWYQQKPGQSPKALIYSASYRYSGVPDRFTGSGSGTDFTLTISDVQSEDLAEYFCQQYKSYPLTFGAGTKLELKR
notes: full-length human IgG1, kappa
B4: CD8B310 (antibody, human IgG1, kappa, V domains shown)
VH: QVQLKESGPGLVAPSQSLSITCTVSGFSLTNYAVHWVRQSPGKGLEWLGVIWTDGSTDYNAGFISRLSISKDNSKSQVFFKMNSLQADDTAIYYCARNNGYFPAFFAYWGQGTTVTVSS
VL: DVLMTQTPLSLPVSLGDQASISCRSSQTIVHSNGNTYLEWYLQKPGQSPKLLMYKVSNRFSGVPDRFGGSGSGTDFTLKISRVEAEDLGVYYCFQGSHAPFTFGSGTKLEIKR
notes: full-length human IgG1, kappa
B5: CD8B250 (antibody, human IgG1, kappa, V domains shown)
VH: B4 VH with T30S, A33V, G62A, T114L, S119A
VL: B3 VL with R20S, G30D, V33I, A34T, S76T, D77N, K92N, A100S, L106M
notes: full-length human IgG1, kappa
B6: CD8B340 (antibody, human IgG1, kappa, V domains shown)
VH: QVQLQQPGAELVKPGASVRLSCKASGYTFTNYWMQWVQQRPGQGLEWIGEIDPSDTFTNYNQNFKDKATLTVDTSSSTAYLQLSSLTSEDSAVYYCARGDWDRDWYFDVWGTGTLVTVSA
VL: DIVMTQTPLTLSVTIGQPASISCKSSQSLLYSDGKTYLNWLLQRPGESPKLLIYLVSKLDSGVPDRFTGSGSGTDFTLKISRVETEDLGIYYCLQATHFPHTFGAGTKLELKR
notes: full-length human IgG1, kappa
B7: CD8B347 (antibody, human IgG1, kappa)
heavy: not shown
light: DIQMTQSPASLSASVGETVTITCRASGNIHNYLAWYQQKQGKSPQLLVFNAETLADGVPSRFSGSGSGTQFSLKINSLQPEDFGTYYCQHFWNNPLTLGAGTKLELKRTVAAPSVFIFPPSDEQLKSGTASVVCLLNNFYPREAKVQWKVDNALQSGNSQESVTEQDSKDSTYSLSSTLTLSKADYEKHKVYACEVTHQGLSSPVTKSFNRGEC
notes: full-length human IgG1, kappa
B8: CD8B245 (antibody, human IgG1, kappa, V domains shown)
VH: EFQLQQSGGGLVQPGGSLSLSCAAPGFTFTDYYMSWVRQSPGKALEWLALSRNKGNGYTTEYSASVKGRFTISRDNSQSILYLQMNVLRAEDSATYYCARTVTGTLFYYALDYWGQGTTVTVSS
VL: DIQMTQSPASLSASVGETVTITCRASENIYSYLAWYQQKQGKSPQFLVYNAKTLAAGVPSRFSGSGSGTQFSLKINRLQPEDFGTYYCQHHYGTPLTFGDGTRLEIKR
notes: full-length human IgG1, kappa
B9: CD8B248 (antibody, human IgG1, kappa, V domains shown)
VH: EVQLQQSGAELARPGASVKMSCKASGYTFTTYTMHWVKQRPGQGLEWIGYINPSSGYTKYNQKFTDKATLTADKSSSTAYMQLSSLTSEDSAVYYCARLWAYWGQGTLVTVSA
VL: DVVMTQTPLSLPVSLGDQASISCRSSQSLVHSSGNTYLHWYLQKPGQSPKLLIYKGSNRFSGVSDRFSGSGSGTDFTLKISRVEAEDLGVYFCSQSTHVPFTFGSGTKLEMKR
notes: full-length human IgG1, kappa
B10: CD8B254 (antibody, human IgG1, kappa, V domains shown)
VH: EVQLQQSGAELVKPGASVKMSCKTSGYTFSSYWITWVKQRPGQGLEWVGDIYPGSGSTNYNEKFKSKAALTVDTSSSTAFMQLNSLTSEDSAVYYCARESITTRITPFDHWGQGTTLTVSS
VL: B9 VL with M111I
notes: full-length human IgG1, kappa
B11: CD8B251 (antibody, human IgG1, kappa, V domains shown)
VH: QVQLKGSGPGLVQPSQSLSITCTVSGFSLTTYAVHWVRQSPGKGLEWLGVIWSGGSTDYNAAFISRLSISKDNSKSQVFFKMNSLQADDTAIYYCARHSYYHYNAMDNWGQGTSVTVSS
VL: DIKMTQSQKFMSTTVGDRVSITCKASQNVGTAVAWYQQKPGQSPKLLIYSASNRYTGVPDRFTGSGSGTDFTLTISNMQSEDLADYFCQQYSSYPFTFGSGTKLEIKR
notes: full-length human IgG1, kappa
B12: CD8B324 (antibody, human IgG1, kappa, V domains shown)
VH: QVQLQQPGADLVKPGASVKLSCKASGYTSTSHWIHWVKQRPGQGLEWIGNIYPGSSSTNYNEKFKRMATLTVDTSSSTVYMVLSSLTSDDSAVYYCARHSPGHRDYAMDYWGLGTSVTVSS
VL: B11 VL with K3V, S12P, Y49A, N77T, S93T, F96L, S100A, I106M
notes: full-length human IgG1, kappa
B13: CD8B311 (antibody, human IgG1, kappa, V domains shown)
VH: QVQLKESGPELVKPGASVKLSCKASGYTFTSYWMHWVKQRPGQGLEWIGMIHPNSGSTNYNEKFKSKATLTVDKSSSTAYMQLSSLTSEDSAVYYCARCGYDGAWFAYWGQGTSVTVSS
VL: DIQMTQTTSSLSASLGDRVTISCSASQGISNCLNWYQQKPDGTVKLLIHYTSSLHSGVPSRFSGGGSGTHYSLTISNLEPEDIATYYCQQYSKVPYTFGSGTKLEIKR
notes: full-length human IgG1, kappa
B14: CD8B366 (antibody, human IgG1, kappa, V domains shown)
VH: EVQLQQSGPELVRPGASVKLSCTASGFNIKDDYIHWVKQRPEQGLEWIGRIDPANGNPRYAPKFQDKATLTADTSSNTAYLQLSSLTSEDTAVYYCARDDEGYYYFDVWGAGTSVTVSS
VL: DIKMTQSPSYLAASPGETITINCRASKSISKYLAWYQEKPGKTNKVLIYSGSTLQSGIPSRFSGSGSGTDFTLTISSLEPEDFAIYYCQQHNEYPLTFGDGTRLEIKR
notes: full-length human IgG1, kappa
B15: CD8B337 (antibody, human IgG1, kappa, V domains shown)
VH: QVTLKESGPGKVQPSQTLSLTCSFSGFSLSTSGMGVSWIRKPSGKGLEWLAHIFWDDDRRYKSSLKSRLTISKDTSSNQVFLMITSVDTADSATYYCARRVGYGDYAYFDVWGAGTTVTVSS
VL: DIQMTQYPASLSVSVGETVTITCRASENIYSDLAWYQQKQGKSPQLLVYAATNLADGVPSRFSGSGSGTQYSLKINSLQSEDFGNYYCQHFWGTPWTFGGGTKLEIKR
notes: full-length human IgG1, kappa
B16: CD8B182 (antibody, human IgG1, kappa, V domains shown)
VH: EVQLQQSGAALAKPGTSVKMSCKASGYTFTSYWMNWVRQRPGQGLEWIGAVNPTNYYTEYIQKFKDKAILTADKSSSTAYMHLSGLTSEDSAVYYCARSGLYNTNHLAWFAYWGQGTTVTVSS
VL: DIKMTQSPASLSASVGETVTITCRASENIHNYLAWYQQIQGKSPQLLVYNAKTLANGVPSRFSGSASGTQFSLTINSLQPEDFGSYYCQHFWTTPLTFGAGTKLELKR
notes: full-length human IgG1, kappa
B17: CD8B362 (antibody, human IgG1, kappa, V domains shown)
VH: EVKLVESGAELVKPGASVKLSCTASGFNIKDTYMHWVKQRPEQGLEWIGRIDPANGHTKFDPKFQGKATITADTSSNTAYLQLSSLTSEDTAVYYCAIRFAYWGQGTLVTVSA
VL: DIQMTQSPSSLSASLGDRVSLTCRASHEISGYLSWLQQKPDGTFKRLIYAASTLDSGVPKRFSGSRSGSDYSLSISSLESEDFADYYCLQYSSYPYTFGSGTKLEMKR
notes: full-length human IgG1, kappa
B18: CD8B350 (antibody, human IgG1, kappa, V domains shown)
VH: EVQLQQSGAELAKPGTSVKMSCKASGYTFAAYWINWLKQRPGQGLEWIGSINPSNGYTEYSQKFKDKAILTADKSSSTAYMQLSSLTSEDSAVYYCSRSGLYYTNHLAWCPYWGQGTTVTVSS
VL: DIVMTQSPASLSASVGETVTITCRASGNIHNYLAWYQQKQGKSPQVLVYNAETLADSVPSRFSGSGSGTQFSLKINSLQPEDFGNYYCQHFWNSPLTFGGGTKLEIKR
notes: full-length human IgG1, kappa
B19: CD8B186 (antibody, human IgG1, kappa, V domains shown)
VH: QVQLQQSGAELAKPGASVKMSCKASGYIFTSYWMHWVKQRPGQGLEWIGNINPSSGYAVYNQKFKDKATLTADQSSSTAYIQLNSLTSEDSAVYYCARRVFYGDSWFAYWGQGTSVTVSS
VL: DVQMIQSPASLSASVGETVTITCRASGNIHNYLAWYQQKQGKSPQLLVYNAKTLADGVPSRFSGSGSGTQYSLKINSLQPEDFGSYYCQHFWSTTWTFGGGTKLEIKR
notes: full-length human IgG1, kappa
B20: CD8B192 (antibody, human IgG1, kappa, V domains shown)
VH: QVQLQQSGPVLVKPGASVKMSCKASGYTFTDYYMNWVMQSHGKSLEWIGVINPYNGGTTYNQRFTGKATLTVDKSSSTAYMELNSLTSEDSAVYYCARNYGAMDSWGQGTSVTVSS
VL: B19 VL with V2I, I5T, Y49S, S63G, S93I, T95P, W96P, G100A, K103R
notes: full-length human IgG1, kappa

T1 sequence (P01732 22-235, chain 1 of 2): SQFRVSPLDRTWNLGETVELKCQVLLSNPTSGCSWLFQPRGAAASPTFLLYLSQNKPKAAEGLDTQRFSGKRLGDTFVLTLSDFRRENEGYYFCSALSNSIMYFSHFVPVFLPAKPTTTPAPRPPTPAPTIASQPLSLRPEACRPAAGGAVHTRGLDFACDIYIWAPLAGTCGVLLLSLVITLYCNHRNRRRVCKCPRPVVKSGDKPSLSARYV
T1 sequence (P10966 22-210, chain 2 of 2): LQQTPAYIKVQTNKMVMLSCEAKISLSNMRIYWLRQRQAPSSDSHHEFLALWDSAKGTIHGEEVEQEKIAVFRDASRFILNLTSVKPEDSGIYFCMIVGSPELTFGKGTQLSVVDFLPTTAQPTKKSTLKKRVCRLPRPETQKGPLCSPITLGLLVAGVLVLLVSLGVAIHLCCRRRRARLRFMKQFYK

This experiment concerns the target T1, human CD8 on human pan T cells (human, UniProt P01732 22-235; P10966 22-210).
T1 construct: Native CD8 on the CD4-negative population of human pan T cells
Briefly: flow cytometry, 20 nM mAb on human pan T cells. As for the experimental part: Secondary antibodies were A647-conjugated goat anti human IgG Fc antibody at 2 μg/mL, and A488-conjugated mouse anti-human CD4 at 1 μg/mL in staining buffer. Live cells were also gated based on OKT8 control mAb binding. Percent CD8 positive population was calculated by percentage of CD8-positive cell count/live cell count.
In general terms: In flow cytometry, cells or beads pass a laser one at a time.
On to B1, for which the “Cell Binding to Human PanT Signal/Background (of CD4 negative population)” value amounted to 777.

As for B2, the “Cell Binding to Human PanT Signal/Background (of CD4 negative population)” value is 16. B3: the “Cell Binding to Human PanT Signal/Background (of CD4 negative population)” value stood at 26.

In the case of B4, the “Cell Binding to Human PanT Signal/Background (of CD4 negative population)” value was 29.

Consider B5, for which the “Cell Binding to Human PanT Signal/Background (of CD4 negative population)” value was 61. Regarding B6, the “Cell Binding to Human PanT Signal/Background (of CD4 negative population)” value came to 8. With B7, the “Cell Binding to Human PanT Signal/Background (of CD4 negative population)” value stood at 1200.

For B8, the “Cell Binding to Human PanT Signal/Background (of CD4 negative population)” value is 44.

Turning to B9, the “Cell Binding to Human PanT Signal/Background (of CD4 negative population)” value stood at 20.

Consider B10, for which the “Cell Binding to Human PanT Signal/Background (of CD4 negative population)” value worked out at 23. As to B11, the “Cell Binding to Human PanT Signal/Background (of CD4 negative population)” value was found to be 37.

As to B12, the “Cell Binding to Human PanT Signal/Background (of CD4 negative population)” value was 1610. Regarding B13, the “Cell Binding to Human PanT Signal/Background (of CD4 negative population)” value came out at 1. The figure for B14 is 318. For the molecule B15, the “Cell Binding to Human PanT Signal/Background (of CD4 negative population)” value came out at 1980. Regarding B16, the “Cell Binding to Human PanT Signal/Background (of CD4 negative population)” value is 1490. As to B17, the “Cell Binding to Human PanT Signal/Background (of CD4 negative population)” value stood at 4. With B18, the “Cell Binding to Human PanT Signal/Background (of CD4 negative population)” value turned out to be 537. On to B19, for which the “Cell Binding to Human PanT Signal/Background (of CD4 negative population)” value amounted to 36. With B20, the “Cell Binding to Human PanT Signal/Background (of CD4 negative population)” value is 22.
